The target in test [1] is T1, ARH77-hBCMA 10B5 BCMA expressing transfectant cells (Homo sapiens, UniProt Q02223).
T1 construct: expressed in transfected cells; host or cells: ARH77 (clone 10B5)
T1 sequence (Q02223 1-184): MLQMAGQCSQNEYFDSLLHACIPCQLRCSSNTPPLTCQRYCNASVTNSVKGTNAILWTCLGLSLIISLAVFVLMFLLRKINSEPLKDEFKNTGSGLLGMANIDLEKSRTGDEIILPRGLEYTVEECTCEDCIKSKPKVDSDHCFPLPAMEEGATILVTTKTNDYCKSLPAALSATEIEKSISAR
Briefly: FACS binding of humanised CA8 to BCMA transfected cells. The note with it: varying concentrations, 20 minutes at RT. The method, then:
ARH77-hBCMA 10B5 BCMA expressing transfectant cells or H929 cells were stained with either chimeric CA8 or humanised variants of CA8 designated J6M0, J6M1, J6M2, J9M0, J9M1, J9M2 at varying concentrations for 20 minutes at RT. Cells were then washed with FACS buffer (PBS+0.5% BSA+0.1% sodium azide) to remove unbound antibody. Cells were incubated with a secondary PE labelled anti-human IgG antibody for 15 minutes at RT and then washed with FACS buffer to remove unbound antibody. Cells were analysed by FACS and mean fluorescence intensity (MFI) values measured to determine binding.
Background: In flow cytometry, cells or beads pass a laser one at a time.

Test [2] deals with T2, human BCMA HEK293 (Homo sapiens, UniProt Q02223).
T2 construct: expressed in transfected cells; host or cells: HEK293
T2 sequence (Q02223 1-184): T1 sequence (Q02223 1-184)
Briefly: FMAT binding assay, human BCMA expressing HEK293 cells. The settings on record: range of antibody concentrations. The method, then: Cryopreserved transfected human, cyno BCMA and mock transfected HEK293 cells were recovered from LN2 storage. Assay wells were prepared with human chimeric CA8 antibody, at a range of different concentrations, mixed with human BCMA HEK293, cyno BCMA HEK293 and mock transfected cells respectively. Anti-human IgG FMAT Blue secondary conjugate was added for detection of human chimeric CA8. The assay plates were left for a minimum of 90 minutes before the result was read on the ABI8200 (FMAT) plate reader.

Test [3] relates to human multiple myeloma cell lines NCI-H929, U266-B1, JJN3 and OPM2. Briefly: ADC activity of chimeric CA8 ADCs, 4 multiple myeloma cell lines (Cell titre Glo, 96 hours). Type of test: cell-based. The settings on record: 1 ug/ml to 5 ng/ml, all 4 cell lines. The method, then: FIG. 11: Viability assay dose response curves—Figure showing dose response curves in a cell viability assay for chimeric CA8 antibody, chimeric CA8-vcMMAE and chimeric CA8-mcMMAF antibody-drug conjugates in human multiple myeloma cell lines NCI-H929, U266-B1, JJN3 and OPM2. Antibody was added to the cells and the number of viable cells after 96 hours measured using CelltiterGlo. Data points represent the mean of triplicate CellTiterGlo measurements. Error bars represent standard error.
Multiple Myeloma cell lines were treated with chimeric CA8 antibody-drug conjugates to determine the ADC concentrations required for growth inhibition and death.
The antibody drug conjugates tested were added to wells containing multiple myeloma cells at concentrations ranging from 1 ug/ml to 5 ng/ml. The plates were incubated at 37° C. for 96 hours at which point viable cells were quantitated using Cell titre Glo.

Test [4] has as its system Cyno in house BCMA. Briefly: ProteOn analysis of CA8 chimeric and humanised constructs, cyno in house BCMA. The note with it: 25° C.; for ka: in M-1s-1 (unit assumed); for kd: in s-1 (unit assumed). Type of test: binding.
The subject of test [5] is TACI-Fc. Briefly: Biacore cross reactivity experiment, TACI-Fc. Type of test: binding. The note with it: antibody captured on protein A. How it is done:
(§1) CA8 chimera antibody was injected and captured on protein A. (A protein A derivitised sensorchip was used). Residual protein A binding was blocked with an injection of a high concentration of human IgG solution. BCMA-Fc, TACI-Fc or BAFF-R-Fc solutions were then tested for binding to the antibody. The 3 proteins were injected in sequence and binding events were measured. The surface was regenerated between injection of each protein.
(§2) Sensorgrams were analysed in the Biaevaluation program. Double reference subtraction was done to remove instrument noise and any non-specific binding from the sensorgram curves.
Background: SPR reads the build-up and loss of mass on a sensor chip optically.

Test [6] relates to BAFF-R-Fc. Briefly: Biacore cross reactivity experiment, BAFF-R-Fc. Type of test: binding. The settings on record: antibody captured on protein A; listed as CA8 chimera antibody. How it is done:
as §1, §2

The target in test [7] is T3, Human BCMA-Fc (Homo sapiens, UniProt Q02223).
T3 construct: CD33 signal peptide (N); TEV site (internal)
Briefly: ELISA binding to recombinant human BCMA-Fc. The note with it: 5 ug/ml to 0.1 ug/ml antibody. How it is done:
Chimeric CA8 antibodies were tested for binding to human BCMA and cyno BCMA expressed as Fc fusions. Human BCMA-Fc and cyno BCMA-Fc were coated to ELISA plates and the plates were blocked using BSA to reduce non specific binding. CA8 chimeric antibodies were added in a concentration range from 5 ug/ml to 0.1 ug/ml to the human and cyno BCMA coated ELISA plates. Any bound human chimeric CA8 antibody was detected using anti-human IgG HRP conjugated secondary antibody as appropriate. HRP substrate (TMB) was added to develop the ELISA.
For orientation: In an ELISA, binding on a coated surface is turned into a signal by an enzyme label.

The subject of test [8] is multiple myeloma cell lines H929, OPM-2, JJN-3 and U266. Briefly: FACS binding curve of chimeric CA8 to multiple myeloma cells. Also on record: species or system human. The settings on record: varying concentrations, 20 minutes at RT. The method, then: A panel of multiple myeloma cell lines were used to determine the binding of chimeric CA8. […] Cells were then washed with FACS buffer (PBS+0.5% BSA+0.1% sodium azide) to remove unbound antibody. Cells were incubated with a secondary PE labelled anti-human IgG antibody for 15 minutes at RT and then washed with FACS buffer to remove unbound antibody. Cells were analysed by FACS and mean fluorescence intensity (MFI) values measured to determine binding.

The target of test [9] is T4, Human commercial BCMA (Homo sapiens, UniProt Q02223).
T4 construct: purchased US Biological B0410
T4 sequence (Q02223 1-184): T1 sequence (Q02223 1-184)
Briefly: ProteOn analysis of CA8 chimeric and humanised constructs, commercial human BCMA. Type of test: binding. The note with it: Run 2, commercial human BCMA, 25° C. The method, then:
The initial screen of CA8 chimeric and humanised variants was carried out on the ProteOn XPR36 (Biorad). The method was as follows; Protein A was immobilised on a GLC chip (Biorad, Cat No: 176-5011) by primary amine coupling, CA8 variants were then captured on this surface and recombinant human BCMA (in house or commercial US Biological, B0410) materials (run 2 only)) passed over at 256, 64, 16, 4, 1 nM with a 0 nM injection (i.e. buffer alone) used to double reference the binding curves, the buffer used is the HBS-EP buffer. 50 mM NaOH was used to regenerate the capture surface. The data was fitted to the 1:1 model using the analysis software inherent to the ProteOn XPR36. Run 1 corresponds to the first screen of humanised CA8 variants (JO to J5 series) and run 2 to the second screen of humanised CA8 variants (J5 to J9 series). Both runs were carried out at 25° C.

Cyno in house BCMA, sequence (as listed by the source): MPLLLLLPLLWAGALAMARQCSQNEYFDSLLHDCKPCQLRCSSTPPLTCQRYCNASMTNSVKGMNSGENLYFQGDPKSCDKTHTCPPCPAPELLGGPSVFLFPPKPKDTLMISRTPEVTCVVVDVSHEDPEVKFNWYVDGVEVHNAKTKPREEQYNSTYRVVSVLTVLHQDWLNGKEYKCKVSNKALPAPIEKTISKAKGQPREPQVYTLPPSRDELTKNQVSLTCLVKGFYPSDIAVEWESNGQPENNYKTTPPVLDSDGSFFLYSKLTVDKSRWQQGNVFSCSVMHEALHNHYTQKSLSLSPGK
T3 sequence (Q02223 with tags, fused parts or gaps): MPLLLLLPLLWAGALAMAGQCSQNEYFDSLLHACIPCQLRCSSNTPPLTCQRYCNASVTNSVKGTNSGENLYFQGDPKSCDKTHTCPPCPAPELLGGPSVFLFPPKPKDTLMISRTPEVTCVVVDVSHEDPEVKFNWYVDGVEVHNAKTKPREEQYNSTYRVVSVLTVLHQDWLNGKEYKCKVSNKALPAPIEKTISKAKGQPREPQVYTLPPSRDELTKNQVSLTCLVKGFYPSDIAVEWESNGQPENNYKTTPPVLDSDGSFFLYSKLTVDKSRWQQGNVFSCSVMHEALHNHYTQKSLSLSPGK
BAFF-R-Fc, sequence (Q96RJ3 1-78 limits assumed): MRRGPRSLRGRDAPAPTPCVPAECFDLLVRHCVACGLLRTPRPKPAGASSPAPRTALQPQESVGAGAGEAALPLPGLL

B1: CA8 Chimera: chimeric anti-BCMA antibody: murine CA8 VH (SEQ ID NO:7) and VL (SEQ ID NO:9) on human γ1 and kappa constant regions (antibody, V domains shown)
VH: EVQLQQSGAVLARPGASVKMSCKGSGYTFTNYWMHWVKQRPGQGLEWIGATYRGHSDTYYNQKFKGKAKLTAVTSTSTAYMELSSLTNEDSAVYYCTRGAIYNGYDVLDNWGQGTLVTVSS
VL: DIQLTQTTSSLSASLGDRVTISCSASQDISNYLNWYQQKPDGTVELVIYYTSNLHSGVPSRFSGSGSGTDYSLTIGYLEPEDVATYYCQQYRKLPWTFGGGSKLEIKR
modifications: human IgG1 and kappa constant regions; mus musculus
As for B1, the “dose dependent binding to ARH77-hBCMA 10B5 cells by FACS (MFI)” value in test [1] is “bound”. The “binding to human BCMA expressed on HEK293 cells” value in [2] was “binds well”. Moreover, the growth inhibitory activity entry in test [3] is recorded as “no significant growth inhibitory activity”. The ka is recorded as 3.82E+05 in test [4] (Run 1, Cyno in house BCMA); 5.89E+04 in test [4] (Run 2, Cyno in house BCMA); 7.05E+05 in test [9] (in M-1s-1 (unit assumed)). The kd in [4] (Run 1, Cyno in house BCMA) turned out to be 1.74E−04; in test [4] (Run 2, Cyno in house BCMA), 1.21E−04; in test [9] (in s-1 (unit assumed)), 9.79E−05. The “binding to TACI-Fc” value in test [5] (listed as CA8) is “not to TACI”; in [5] (listed as CA8 chimera antibody), “does not bind”. In addition, in [6], the “binding to BAFF-R-Fc” value is on record as “does not bind”. The “binding to recombinant human BCMA (ELISA)” value in [7] (listed as Chimeric CA8) was “binds to recombinant human and cyno BCMA”; in [7] (listed as human chimeric CA8 antibodies), “bind to human and cyno BCMA proteins equally”. The “binding to multiple myeloma cell lines by FACS (MFI)” value in test [8] is given as “bound to multiple myeloma cell lines H929, OPM-2, JJN-3 & U266 in a dose dependent manner”.

The values are drawn from patent US11419945B2, “Antigen binding proteins” (Glaxo Group Limited, priority 2011, dated 2022).
